According to patent US20030148956A1 (PROCTER AND GAMBLE, published 2003):
Ends that are not written are not given here.

T1: CRF2R
T1 sequence (Q13324 whole entry, species assumed, looked up): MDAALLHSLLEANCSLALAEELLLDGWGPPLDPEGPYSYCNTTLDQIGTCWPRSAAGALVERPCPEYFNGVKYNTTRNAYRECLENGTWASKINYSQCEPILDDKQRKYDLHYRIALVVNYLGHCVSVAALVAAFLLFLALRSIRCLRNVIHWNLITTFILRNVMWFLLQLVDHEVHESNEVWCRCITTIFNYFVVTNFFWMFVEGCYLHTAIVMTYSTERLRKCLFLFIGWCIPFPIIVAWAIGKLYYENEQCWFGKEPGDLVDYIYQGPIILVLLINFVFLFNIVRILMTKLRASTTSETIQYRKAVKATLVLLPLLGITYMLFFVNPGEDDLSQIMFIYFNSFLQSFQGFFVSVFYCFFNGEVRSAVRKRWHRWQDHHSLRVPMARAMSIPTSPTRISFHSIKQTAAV

T2: corticotropin releasing factor 2 receptor
T2 sequence (Q13324 whole entry, species assumed, looked up): T1 sequence (Q13324 whole entry, species assumed, looked up)


Biological target: T1, CRF2R
Assay: cell-based or functional assay

Binder	CRF2R EC50	CRF2R Emax
ZGPPISIDLPYQLLRKMIEIEKQEKEKQQAANNRLLLDTI (C-terminal amide) [SEQ ID NO 202]	8.7 nM	99%
ZGPPISIDLPQILLRKMIEIEKQEKEKQQAANNRLLLDTI (C-terminal amide) [SEQ ID NO 199]	8.5 nM	92%
ZGPPISIDLPWHLLRKMIEIEKQEKEKQQAANNRLLLDTI (C-terminal amide) [SEQ ID NO 209]	7.4 nM	93%
ZGPPISIDLPQHLLRKMIEIEKQEKEKQQAANNRLLLDTI (C-terminal amide) [SEQ ID NO 207]	61.4 nM	96%
ZGPPISIDLPYVLLRKMIEIEKQEKEKQQAANNRLLLDTI (C-terminal amide) [SEQ ID NO 201]	5 nM	100%
ZGPPISIDLPYHLLRKMIEIEKQEKEKQQAANNRLLLDTI (C-terminal amide) [SEQ ID NO 208]	5.6 nM	88%
ZGPPISIDLPHHLLRKMIEIEKQEKEKQQAANNRLLLDTI (C-terminal amide) [SEQ ID NO 205]	25 nM	93%
ZGPPISIDLPYILLRKMIEIEKQEKEKQQAANNRLLLDTI (C-terminal amide) [SEQ ID NO 204]	3.6 nM	93%
ZGPPISIDLPAQLLRKMIEIEKQEKEKQQAANNRLLLDTI (C-terminal amide) [SEQ ID NO 211]	59.5 nM	100%
ZGPPISIDLPITLLRKMIEIEKQEKEKQQAANNRLLLDTI (C-terminal amide) [SEQ ID NO 24]	43.1 nM	100%
ZGPPISIDLPAHLLRKMIEIEKQEKEKQQAANNRLLLDTI (C-terminal amide) [SEQ ID NO 206]	30.5 nM	97%
ZGPPISIDLPYLLLRKMIEIEKQEKEKQQAANNRLLLDTI (C-terminal amide) [SEQ ID NO 203]	5.2 nM	94%
ZGPPISIDLPQLLLRKMIEIEKQEKEKQQAANNRLLLDTI (C-terminal amide) [SEQ ID NO 196]	27.7 nM	97%
ZGPPISIDLPLILLRKMIEIEKQEKEKQQAANNRLLLDTI (C-terminal amide) [SEQ ID NO 194]	5 nM	96%
ZGPPISIDLPLFLLRKMIEIEKQEKEKQQAANNRLLLDTI (C-terminal amide) [SEQ ID NO 195]	18.8 nM	–
ZGPPISIDLPYTLLRKMIEIEKQEKEKQQAANNRLLLDTI (C-terminal amide) [SEQ ID NO 200]	8.8 nM	100%
ZGPPISIDLPWQLLRKMIEIEKQEKEKQQAANNRLLLDTI (C-terminal amide) [SEQ ID NO 210]	10.2 nM	97%
ZGPPISIDLPFQLLRKMIEIEKQEKEKQQATTNARLLDTV (C-terminal amide) [SEQ ID NO 20]	7.81 nM	99%
ZGPPISIDLPFQLLRKMIEIEKQEKEKQQATTNARLLDRV (C-terminal amide) [SEQ ID NO 22]	8.33 nM	100%
ZGPPISIDLPFQLLRKMIEIEKQEKEKQQATTNARLLARV (C-terminal amide) [SEQ ID NO 23]	10.2 nM	100%
ZGPPISIDLPFQLLRKMIEIEKQEKEKQQATTNARLLATV (C-terminal amide) [SEQ ID NO 21]	8.46 nM	96%

Biological target: CRF1R
Assay: cell-based or functional assay

Binder	CRF1R EC50	CRF1R Emax
ZGPPISIDLPYQLLRKMIEIEKQEKEKQQAANNRLLLDTI (C-terminal amide) [SEQ ID NO 202]	404 nM	100%
ZGPPISIDLPQILLRKMIEIEKQEKEKQQAANNRLLLDTI (C-terminal amide) [SEQ ID NO 199]	706 nM	93%
ZGPPISIDLPWHLLRKMIEIEKQEKEKQQAANNRLLLDTI (C-terminal amide) [SEQ ID NO 209]	26.4 nM	80%
ZGPPISIDLPQHLLRKMIEIEKQEKEKQQAANNRLLLDTI (C-terminal amide) [SEQ ID NO 207]	466 nM	88%
ZGPPISIDLPYVLLRKMIEIEKQEKEKQQAANNRLLLDTI (C-terminal amide) [SEQ ID NO 201]	99.6 nM	80%
ZGPPISIDLPYHLLRKMIEIEKQEKEKQQAANNRLLLDTI (C-terminal amide) [SEQ ID NO 208]	64.9 nM	81%
ZGPPISIDLPHHLLRKMIEIEKQEKEKQQAANNRLLLDTI (C-terminal amide) [SEQ ID NO 205]	126 nM	88%
ZGPPISIDLPYILLRKMIEIEKQEKEKQQAANNRLLLDTI (C-terminal amide) [SEQ ID NO 204]	32.1 nM	74%
ZGPPISIDLPAQLLRKMIEIEKQEKEKQQAANNRLLLDTI (C-terminal amide) [SEQ ID NO 211]	826 nM	37%
ZGPPISIDLPITLLRKMIEIEKQEKEKQQAANNRLLLDTI (C-terminal amide) [SEQ ID NO 24]	> 1000 nM	18%
ZGPPISIDLPAHLLRKMIEIEKQEKEKQQAANNRLLLDTI (C-terminal amide) [SEQ ID NO 206]	696 nM	97%
ZGPPISIDLPYLLLRKMIEIEKQEKEKQQAANNRLLLDTI (C-terminal amide) [SEQ ID NO 203]	76.2 nM	86%
ZGPPISIDLPQLLLRKMIEIEKQEKEKQQAANNRLLLDTI (C-terminal amide) [SEQ ID NO 196]	447 nM	96%
ZGPPISIDLPLILLRKMIEIEKQEKEKQQAANNRLLLDTI (C-terminal amide) [SEQ ID NO 194]	106 nM	94%
ZGPPISIDLPLFLLRKMIEIEKQEKEKQQAANNRLLLDTI (C-terminal amide) [SEQ ID NO 195]	103 nM	93%
ZGPPISIDLPYTLLRKMIEIEKQEKEKQQAANNRLLLDTI (C-terminal amide) [SEQ ID NO 200]	188 nM	99%
ZGPPISIDLPWQLLRKMIEIEKQEKEKQQAANNRLLLDTI (C-terminal amide) [SEQ ID NO 210]	43.5 nM	90%
ZGPPISIDLPFQLLRKMIEIEKQEKEKQQATTNARLLDTV (C-terminal amide) [SEQ ID NO 20]	906 nM	60%
ZGPPISIDLPFQLLRKMIEIEKQEKEKQQATTNARLLDRV (C-terminal amide) [SEQ ID NO 22]	1000 nM	64%
ZGPPISIDLPFQLLRKMIEIEKQEKEKQQATTNARLLARV (C-terminal amide) [SEQ ID NO 23]	1000 nM	82%
ZGPPISIDLPFQLLRKMIEIEKQEKEKQQATTNARLLATV (C-terminal amide) [SEQ ID NO 21]	908 nM	88%

Biological target: T2, corticotropin releasing factor 2 …
Assay: cell-based or functional assay

Binder	CRF2R EC50	CRF2R Emax %
NDDPPISIDLPFQLLRNMIEMARIENEREQAGLNAKYLAEV-NH2 [SEQ ID NO 258]	100 nM	49.3%
NDDPPISIDLPQYLLRNMIEMARIENEREQAGLNAKYLAEV-NH2 [SEQ ID NO 265]	100 nM	23.4%
NDDPPISIDLPLHLLRNMIEMARIENEREQAGLNAKYLAEV-NH2 [SEQ ID NO 259]	100 nM	65%
NDDPPISIDLPFHLLRNMIEMARIENEREQAGLNAKYLAEV-NH2 [SEQ ID NO 262]	100 nM	92.2%
NDDPPISIDLPLFLLRNMIEMARIENEREQAGLNAKYLAEV-NH2 [SEQ ID NO 257]	100 nM	72.6%
ZGPPISIDVPFQLLRKMIEIEKQEKEKQQAANNRLLLDTI (C-terminal amide) [SEQ ID NO 256]	12.6 nM	100%
NDDPPISIDLPFFLLRNMIEMARIENEREQAGLNAKYLAEV-NH2 [SEQ ID NO 264]	100 nM	66.3%
NDDPPISIDLPFLLLRNMIEMARIENEREQAGLNAKYLAEV-NH2 [SEQ ID NO 260]	100 nM	89.3%
NDDPPISIDLPFYLLRNMIEMARIENEREQAGLNAKYLAEV-NH2 [SEQ ID NO 261]	100 nM	95.3%
DNPSLSIDLPYYLLRTLLELARTQSQRERAEQNAIIFASV-NH2 [SEQ ID NO 263]	36.2 nM	93%

Biological target: corticotropin releasing factor 1 receptor
Assay: cell-based or functional assay

Binder	CRF1R EC50	CRF1R Emax %
NDDPPISIDLPFQLLRNMIEMARIENEREQAGLNAKYLAEV-NH2 [SEQ ID NO 258]	1000 nM	23.6%
NDDPPISIDLPQYLLRNMIEMARIENEREQAGLNAKYLAEV-NH2 [SEQ ID NO 265]	1000 nM	9.3%
NDDPPISIDLPLHLLRNMIEMARIENEREQAGLNAKYLAEV-NH2 [SEQ ID NO 259]	820 nM	83.6%
NDDPPISIDLPFHLLRNMIEMARIENEREQAGLNAKYLAEV-NH2 [SEQ ID NO 262]	408 nM	100%
NDDPPISIDLPLFLLRNMIEMARIENEREQAGLNAKYLAEV-NH2 [SEQ ID NO 257]	744 nM	83.5%
ZGPPISIDVPFQLLRKMIEIEKQEKEKQQAANNRLLLDTI (C-terminal amide) [SEQ ID NO 256]	254 nM	100%
NDDPPISIDLPFFLLRNMIEMARIENEREQAGLNAKYLAEV-NH2 [SEQ ID NO 264]	704 nM	100%
NDDPPISIDLPFLLLRNMIEMARIENEREQAGLNAKYLAEV-NH2 [SEQ ID NO 260]	834 nM	89.7%
NDDPPISIDLPFYLLRNMIEMARIENEREQAGLNAKYLAEV-NH2 [SEQ ID NO 261]	274 nM	100%
DNPSLSIDLPYYLLRTLLELARTQSQRERAEQNAIIFASV-NH2 [SEQ ID NO 263]	802 nM	72%
